From patent publication US20150218255A1 (US Dept. of Health and Human Services, published 2015)
Numbering of substitutions follows the chain as printed.

Columns and labels:
[1] = target: T1, DENV envelope domain III, serotype 3 (antigen of the Biacore assays) (Dengue virus serotype 3 (consensus …, UniProt Q5UB51 569-672)); assay: SPR (Biacore)
T1 construct: also called DIII serotype 3; DIII.3

[2] = target: T2, DENV envelope domain III, serotype 2 (antigen of the Biacore assays) (Dengue virus serotype 2 (consensus …, UniProt P14337 571-674)); assay: SPR (Biacore)
T2 construct: also called DIII serotype 2; DIII.2

[3] = target: T3, DENV envelope domain III, serotype 1 (antigen of the Biacore assays) (Dengue virus serotype 1 (consensus …, UniProt P17763 571-674)); assay: SPR (Biacore)
T3 construct: also called DIII serotype 1; DIII.1
T3 chain: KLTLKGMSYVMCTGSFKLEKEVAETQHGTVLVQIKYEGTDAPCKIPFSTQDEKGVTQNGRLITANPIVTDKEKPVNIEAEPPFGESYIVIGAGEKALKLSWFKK

[4] = target: T4, DENV envelope domain III, serotype 4 (antigen of the Biacore assays) (Dengue virus serotype 4 (consensus …, UniProt P09866 570-673)); assay: SPR (Biacore)
T4 construct: also called DIII serotype 4; DIII.4

[5] = target: T1, DENV envelope domain III, serotype 3 …; assay: SPR (Biacore); remark: listed apart in the source
[6] = target: T2, DENV envelope domain III, serotype 2 …; assay: SPR (Biacore); remark: listed apart in the source
[7] = target: T3, DENV envelope domain III, serotype 1 …; assay: SPR (Biacore)
[8] = target: T4, DENV envelope domain III, serotype 4 …; assay: SPR (Biacore); remark: listed apart in the source
[9] = target: T1, DENV envelope domain III, serotype 3 …; assay: SPR (Biacore X100), scFv m366 immobilised on CM5, antigen injected, 1:1 Langmuir fit
[10] = target: T2, DENV envelope domain III, serotype 2 …; assay: as above
[11] = target: T3, DENV envelope domain III, serotype 1 …; assay: as above
[12] = target: T4, DENV envelope domain III, serotype 4 …; assay: as above

T2 sequence (P14337 571-674 limits assumed): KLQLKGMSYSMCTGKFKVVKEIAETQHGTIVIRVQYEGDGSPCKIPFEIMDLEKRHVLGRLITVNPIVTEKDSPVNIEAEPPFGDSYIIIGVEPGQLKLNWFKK
T4 sequence (P09866 570-673 limits assumed): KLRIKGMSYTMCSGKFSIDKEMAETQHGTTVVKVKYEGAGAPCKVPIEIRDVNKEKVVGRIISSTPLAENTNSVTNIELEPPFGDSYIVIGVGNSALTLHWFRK
T1 sequence (Q5UB51 569-672 limits assumed): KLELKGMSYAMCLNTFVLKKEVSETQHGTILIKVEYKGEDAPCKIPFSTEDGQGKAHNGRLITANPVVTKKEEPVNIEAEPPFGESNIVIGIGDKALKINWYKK

B1: human anti-dengue virus antibody scFv m360 (scFv)
scFv: QVTLKESGPTLVKRTQTLTLTCTFFGFSLSTSGMRVSWIRQPPGKALEWIARIDWDDDKFYSISLKSRLTISKDTSKNQVVLTMTNMDPVDTATYYCARTPYNWNDGPRGAFDIWGQGTMVTVSSEGGGSGGGASSGGGSQSVLTQPPSVSAAPGQKVTIPCSGSYSNIRNNYVSWYQQLPGTAPKLLIYDDNKRPSGIPDRFSGSKSGTLATLVITGLQSGDEADYYCGTWDSSLSGVVFGGGTKLTVLG
notes: also called antibody m360
With B1 the Kd [1] was 0.116 nM, the Kd [2] was 5.13 nM and the Kd [3] was 5.84 nM. The Kd [4] was 82.8 nM.

B2: human anti-dengue virus antibody scFv m360.6 (scFv)
scFv: KVTLKESGPTLVKPRQTLTLTCTFSGFSLSTSGMRVSWVRQPPGKALEWIARIDWDDDKFYSTSLKTRLTISKDTFKNQVVLTMTNMDPVDTAMYYCVRTPYNWNDGPRGALDIWGQGTMVTVSSGGDRSDGGASGGGGSQSMLTQSPSVSAAPGQNVTISCSGDYPNIRNNYVSWYQQLPGAAPKLLIYDNNKRPSGIPDRFSGSKSGTSATLDITGLQTGDEADYYCGAWDSRLSAVVFGGGTKLTVLG
notes: also called antibody m360.6
With B2 the Kd [5] was 0.0023 nM, the Kd [6] was 0.24 nM and the Kd [7] was 0.31 nM. The Kd [8] was 33 nM.

B3: human anti-dengue virus antibody scFv m366 (scFv)
scFv: QLQLQESGGGLVQPGGSLRLSCAASGFTFSSYSMNWVRQAPGKRLEWVSSISGSSSYIYYADSVKGRFTISRDNAKNSLYLQMDSLRAEDTAVYYCARYAAGIWTFDIWGQGTTVTVSSGGGGSGGGASGGGGSSYELTQPPSVSVAPGKTASISCGGDNIGRKSVHWFQQKPGQAPVLVLYDDSDRPSGIPARFSGSNSGNTATLTISRVEAGDEADYYCQVWARSSDHPNWVFGGGTKLTVLG
notes: also called antibody m366
Binder B3 has a Kd [9] of 1.09 nM, a koff [9] of 0.000204 s⁻¹ and a kon [9] of 186000 M⁻¹ s⁻¹. It also gave a Kd [10] of 2.51 nM, a Kd [11] of 6.14 nM and a Kd [12] of 12.4 nM.

B4: human anti-dengue virus antibody scFv m366.6 (scFv)
scFv: B3 scFv with Y32H, V37I, G53S, K65R, A100M, T114M, R210G, H230L
notes: also called antibody m366.6
Work on B4 yielded a Kd [5] of 0.27 nM, a Kd [6] of 0.29 nM and a Kd [7] of 0.44 nM. For the same binder, the Kd [8] was 0.75 nM.
